In this experiment the target is human IL-25 expressed with a C-terminal myc-myc-hexahistidine tag (human). Briefly: competition ELISA, 2 nM hIL-25-MMH binding to coated hIL-17RB-hFc; IC50 cell printed 'Non-blocker'.

Our source for the % Maximum blocking of 200 nM antibody values is patent US20160083466A1.

human IL-25 expressed with a C-terminal myc-myc-hexahistidine tag (human), sequence (chain, as listed by the source): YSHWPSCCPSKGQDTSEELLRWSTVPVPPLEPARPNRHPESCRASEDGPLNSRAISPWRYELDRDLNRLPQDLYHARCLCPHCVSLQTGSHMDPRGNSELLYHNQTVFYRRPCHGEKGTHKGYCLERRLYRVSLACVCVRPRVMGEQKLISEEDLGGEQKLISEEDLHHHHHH

Regarding hIgG4 isotype control (antibody), the % Maximum blocking of 200 nM antibody is -31%.
Then mIgG2a isotype control (antibody), with -45%.
